Experimental data taken from article PMC6687543 (Structure (London, England : 1993), 2019).

Target: T1, preformed binary complex IL-18/IL-18Rα-ECD ( | human, UniProt Q14116 37-193; Q13478 22-329)
T1 sequence (looked up) 1: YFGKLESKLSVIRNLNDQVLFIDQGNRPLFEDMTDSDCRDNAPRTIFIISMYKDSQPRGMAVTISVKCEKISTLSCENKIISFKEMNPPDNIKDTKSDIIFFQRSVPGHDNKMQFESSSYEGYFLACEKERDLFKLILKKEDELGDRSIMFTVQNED
T1 sequence (looked up) 2: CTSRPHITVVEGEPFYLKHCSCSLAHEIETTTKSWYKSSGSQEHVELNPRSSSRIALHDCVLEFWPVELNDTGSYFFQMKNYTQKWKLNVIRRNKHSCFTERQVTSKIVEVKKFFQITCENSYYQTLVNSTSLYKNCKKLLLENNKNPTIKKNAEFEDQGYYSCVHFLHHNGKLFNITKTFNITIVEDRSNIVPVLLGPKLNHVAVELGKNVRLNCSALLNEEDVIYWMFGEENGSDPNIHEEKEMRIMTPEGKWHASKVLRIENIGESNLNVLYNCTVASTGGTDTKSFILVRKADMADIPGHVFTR
Assay: SPR

- binding result: binds
B1: IL-18Rβ-ECD (extracellular domain of IL-18 receptor beta), wild type (receptor, human, UniProt O95256 20-354, looked up)
chain: FNISGCSTKKLLWTYSTRSEEEFVLFCDLPEPQKSHFCHRNRLSPKQVPEHLPFMGSNDLSDVQWYQQPSNGDPLEDIRKSYPHIIQDKCTLHFLTPGVNNSGSYICRPKMIKSPYDVACCVKMILEVKPQTNASCEYSASHKQDLLLGSTGSISCPSLSCQSDAQSPAVTWYKNGKLLSVERSNRIVVDEVYDYHQGTYVCDYTQSDTVSSWTVRAVVQVRTIVGDTKLKPDILDPVEDTLEVELGKPLTISCKARFGFERVFNPVIKWYIKDSDLEWEVSVPEAKSIKSTLKDEIIERNIILEKVTQRDLRRKFVCFVQNSIGNTTQSVQLKE
modifications: biotin (biotinylated IL-18Rβ-ECD, site not stated)
